Columns and labels:
[1] = molecular target: HIV-1 strain CAP210.2.00.E8 envelope (gp120) (HIV-1); test: cell-based or functional assay
[2] = molecular target: HIV-1 strain Du172.17 envelope (gp120) (HIV-1); test: cell-based or functional assay
[3] = molecular target: HIV-1 strain AC10.0.29 envelope (gp120) (HIV-1); test: cell-based or functional assay
[4] = molecular target: HIV-1 strain SC422661.8 envelope (gp120) (HIV-1); test: cell-based or functional assay
[5] = molecular target: HIV-1 strain TRO.11 envelope (gp120) (HIV-1); test: cell-based or functional assay
[6] = molecular target: HIV-1 strain CAP45.2.00.G3 envelope (gp120) (HIV-1); test: cell-based or functional assay
[7] = molecular target: the viral strains including SC422661.8, TRO0.11, CAP45.2.00G3, CAP210.2.00E8, Du172.17, and AC10.0.29; test: cell-based or functional assay
[8] = molecular target: Env of HIV-1 strain Du172.17 (HIV-1); test: cell-based or functional assay
[9] = molecular target: Env of HIV-1 strain CAP210.2.00.E8 (HIV-1); test: cell-based or functional assay
[10] = molecular target: Env of HIV-1 strain SC422661.8 (HIV-1); test: cell-based or functional assay
[11] = molecular target: Env of HIV-1 strain AC10.0.29 (HIV-1); test: cell-based or functional assay
[12] = molecular target: Env of HIV-1 strain TRO.11 (HIV-1); test: cell-based or functional assay
[13] = molecular target: Env of HIV-1 strain CAP45.2.00.G3 (HIV-1); test: cell-based or functional assay
[14] = molecular target: HIV-1 Env of strain TRO.11 (HIV-1); test: cell-based or functional assay
[15] = molecular target: HIV-1 Env of strain CAP45.2.00.G3 (HIV-1); test: cell-based or functional assay
[16] = molecular target: HIV-1 Env of strain CAP210.2.00.E8 (HIV-1); test: cell-based or functional assay
[17] = molecular target: HIV-1 Env of strain SC422661.8 (HIV-1); test: cell-based or functional assay
[18] = molecular target: HIV-1 Env of strain Du172.17 (HIV-1); test: cell-based or functional assay
[19] = molecular target: HIV-1 Env of strain AC10.0.29 (HIV-1); test: cell-based or functional assay
[20] = molecular target: Q259.d2.17 gp120 core (HIV-1)
[21] = molecular target: CAP244.2.00.D3 gp120 core (HIV-1)
[22] = molecular target: 93TH057 gp120 core (HIV-1)

B1: 3BNC55 T54W IgG (antibody, name in Kabat numbering, V domains shown)
VH: QVQLVQSGTAVKRPGASVRVSCQASGYTFTDYFIYWWRQAPGQGLEWLGWINPLWSQPSYPSRFQGRLTLTRDTFDEMLYMDLRGLRSDDTGIYFCARRHSDYCDFDIWGSGTQIIVSS
VL: DIQMTQSPSSLSASVGDKVTITCQTSAGYLNWYQQRRGRAPKLLMYDGSRLVTGVPSRFSGRRWGTQYNLTIGSLQPEDIATYYCQVYEFFGPGTRLDLKS
For B1, the neutralization IC50 [1] was > 50 µg/mL, the neutralization IC50 [2] was > 50 µg/mL and the neutralization IC50 [3] was > 50 µg/mL. The neutralization IC50 [4] was 0.6 µg/mL, the neutralization IC50 [5] was > 50 µg/mL and the neutralization IC50 [6] was > 50 µg/mL.

B2: 3BNC60 (antibody, V domains shown)
VH: QVHLSQSGAAVTKPGASVRVSCEASGYKISDHFIHWWRQAPGQGLQWVGWINPKTGQPNNPRQFQGRVSLTRQASWDFDTYSFYMDLKAVRSDDTAIYFCARQRSDFWDFDVWGSGTQVTVSS
VL: DIQMTQSPSSLSARVGDTVTITCQANGYLNWYQQRRGKAPKLLIYDGSKLERGVPARFSGRRWGQEYNLTINNLQPEDVATYFCQVYEFIVPGTRLDLKRTVA
B2 showed an IC50 (averaged across the strains) [7] of 0.3 µg/mL, an IC50 [8] of 1.4 µg/mL and an IC50 [9] of 10.6 µg/mL. The IC50 [10] was 0.042 µg/mL, the IC50 [11] was > 50 µg/mL and the IC50 [12] was 0.018 µg/mL. It also gave an IC50 [13] of 43.2 µg/mL.

B3: NIH45-46 G54I IgG (antibody, name in Kabat numbering, V domains shown)
VH: QVRLSQSGGQMKKPGESMRLSCRASGYEFLNCPINWIRLAPGRRPEWMGWLKPRIGAVNYARKFQGRVTMTRDVYSDTAFLELRSLTSDDTAVYFCTRGKYCTARDYYNWDFEHWGRGAPVTVSS
VL: EIVLTQSPATLSLSPGETAIISCRTSQSGSLAWYQQRPGQAPRLVIYSGSTRAAGIPDRFSGSRWGADYNLSISNLESGDFGVYYCQQYEFFGQGTKVQVDI
In the case of B3, the neutralization IC50 [14] is reported as 10 µg/mL, the neutralization IC50 [15] is reported as > 50 µg/mL and the neutralization IC50 [16] is reported as > 50 µg/mL. The neutralization IC50 [17] was 0.1 µg/mL, the neutralization IC50 [18] was > 50 µg/mL and the neutralization IC50 [19] was 8.6 µg/mL.

B4: NIH45-46 G54L IgG (antibody, name in Kabat numbering, V domains shown)
VH: QVRLSQSGGQMKKPGESMRLSCRASGYEFLNCPINWIRLAPGRRPEWMGWLKPRLGAVNYARKFQGRVTMTRDVYSDTAFLELRSLTSDDTAVYFCTRGKYCTARDYYNWDFEHWGRGAPVTVSS
VL: EIVLTQSPATLSLSPGETAIISCRTSQSGSLAWYQQRPGQAPRLVIYSGSTRAAGIPDRFSGSRWGADYNLSISNLESGDFGVYYCQQYEFFGQGTKVQVDI
With B4 the neutralization IC50 [14] was 0.3 µg/mL, the neutralization IC50 [15] was > 50 µg/mL and the neutralization IC50 [16] was > 50 µg/mL. For the same binder, the neutralization IC50 [17] was 0.1 µg/mL, the neutralization IC50 [18] was > 50 µg/mL and the neutralization IC50 [19] was 1.7 µg/mL.

B5: NIH45-46 G54H IgG (antibody, name in Kabat numbering, V domains shown)
VH: QVRLSQSGGQMKKPGESMRLSCRASGYEFLNCPINWIRLAPGRRPEWMGWLKPRHGAVNYARKFQGRVTMTRDVYSDTAFLELRSLTSDDTAVYFCTRGKYCTARDYYNWDFEHWGRGAPVTVSS
VL: EIVLTQSPATLSLSPGETAIISCRTSQSGSLAWYQQRPGQAPRLVIYSGSTRAAGIPDRFSGSRWGADYNLSISNLESGDFGVYYCQQYEFFGQGTKVQVDI
In the case of B5, the neutralization IC50 [14] is reported as 0.2 µg/mL, the neutralization IC50 [15] is reported as > 50 µg/mL and the neutralization IC50 [16] is reported as > 50 µg/mL. The neutralization IC50 [17] was 0.09 µg/mL, the neutralization IC50 [18] was > 50 µg/mL and the neutralization IC50 [19] was 0.6 µg/mL.

B6: NIH45-46^G54W Fab (C-terminal 6x-His tagged heavy chain, SPR) (Fab, V domains shown)
VH: QVRLSQSGGQMKKPGESMRLSCRASGYEFLNCPINWIRLAPGRRPEWMGWLKPRWGAVNYARKFQGRVTMTRDVYSDTAFLELRSLTSDDTAVYFCTRGKYCTARDYYNWDFEHWGRGAPVTVSS
VL: EIVLTQSPATLSLSPGETAIISCRTSQSGSLAWYQQRPGQAPRLVIYSGSTRAAGIPDRFSGSRWGADYNLSISNLESGDFGVYYCQQYEFFGQGTKVQVDI
With B6 the Kd [20] was 48 nM, the koff [20] was 0.0017 s⁻¹ and the kon [20] was 34000 M⁻¹ s⁻¹. It also gave a Kd [21] of 37 nM, a kon [21] of 22000 M⁻¹ s⁻¹ and a Kd [22] of 63 nM. For the same binder, the koff [22] was 0.0016 s⁻¹ and the kon [22] was 26000 M⁻¹ s⁻¹.

B7: NIH45-46 G54M IgG (antibody, name in Kabat numbering, V domains shown)
VH: QVRLSQSGGQMKKPGESMRLSCRASGYEFLNCPINWIRLAPGRRPEWMGWLKPRMGAVNYARKFQGRVTMTRDVYSDTAFLELRSLTSDDTAVYFCTRGKYCTARDYYNWDFEHWGRGAPVTVSS
VL: EIVLTQSPATLSLSPGETAIISCRTSQSGSLAWYQQRPGQAPRLVIYSGSTRAAGIPDRFSGSRWGADYNLSISNLESGDFGVYYCQQYEFFGQGTKVQVDI
B7 was tested, and the neutralization IC50 [14] was 0.3 µg/mL, the neutralization IC50 [15] was > 50 µg/mL and the neutralization IC50 [16] was > 50 µg/mL. The neutralization IC50 [17] was 0.06 µg/mL, the neutralization IC50 [18] was > 50 µg/mL and the neutralization IC50 [19] was 1.5 µg/mL.

B8: 12A12^Y54W IgG (antibody, name in Kabat numbering, V domains shown)
VH: SQHLVQSGTQVKKPGASVRISCQASGYSFTDYVLHWWRQAPGQGLEWMGWIKPVWGARNYARRFQGRINFDRDIYREIAFMDLSGLRSDDTALYFCARDGSGDDTSWHLDPWGQGTLVIVSA
VL: DIQMTQSPSSLSASVGDRVTITCQAGQGIGSSLQWYQQKPGKAPKLLVHGASNLHRGVPSRFSGSGFHTTFSLTISGLQRDDFATYFCAVLEFFGPGTKVEIKR
With B8 the neutralization IC50 [1] was > 50 µg/mL, the neutralization IC50 [2] was 0.1 µg/mL and the neutralization IC50 [3] was 0.5 µg/mL. It also gave a neutralization IC50 [4] of 0.2 µg/mL, a neutralization IC50 [5] of 0.2 µg/mL and a neutralization IC50 [6] of 0.2 µg/mL.
